Patent publication US20260265379A1 (IMCHECK THERAPEUTICS, published 2026)

Columns and labels:
[1] = biological target: T1, recombinant human BTN3A1 (human, UniProt O00481 30-254); assay: SPR
T1 construct: Soluble form of the antigen used in SPR; also called rhBTN3A1; recombinant BTN3A1 protein

[2] = biological target: T2, recombinant human PD-L1 (human, UniProt Q9NZQ7 19-239, limits assumed); assay: SPR
T2 construct: Soluble antigen in SPR; also called rhPD-L1

[3] = biological target: T3, PD-L1 at the surface of transduced cells (UniProt Q9NZQ7 19-290, limits assumed); assay: flow cytometry, CHO-PD-L1 cells
T3 construct: whole, on cells; CHO-PD-L1 cells in flow cytometry, Raji-PD-L1 cells in the reporter assay; also called CHO-PD-L1; Raji-PD-L1
T3 sequence (Q9NZQ7 19-290 limits assumed): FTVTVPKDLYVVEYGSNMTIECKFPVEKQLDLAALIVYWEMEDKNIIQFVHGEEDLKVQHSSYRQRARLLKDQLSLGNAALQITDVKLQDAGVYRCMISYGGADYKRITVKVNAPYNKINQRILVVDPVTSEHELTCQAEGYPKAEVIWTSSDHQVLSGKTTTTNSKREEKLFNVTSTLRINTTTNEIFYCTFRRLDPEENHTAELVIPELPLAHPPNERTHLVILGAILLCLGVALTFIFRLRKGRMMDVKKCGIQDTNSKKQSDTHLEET

[4] = biological target: T4, BTN3A1 at the surface of HEK-BTN3A1 cells (human, UniProt O00481 30-513); assay: flow cytometry, HEK-BTN3A1 cells
T4 construct: HEK 293T BTN2A/BTN3A KO cells transduced with a BTN3A1 expressing vector
T4 sequence (O00481 30-513 limits assumed): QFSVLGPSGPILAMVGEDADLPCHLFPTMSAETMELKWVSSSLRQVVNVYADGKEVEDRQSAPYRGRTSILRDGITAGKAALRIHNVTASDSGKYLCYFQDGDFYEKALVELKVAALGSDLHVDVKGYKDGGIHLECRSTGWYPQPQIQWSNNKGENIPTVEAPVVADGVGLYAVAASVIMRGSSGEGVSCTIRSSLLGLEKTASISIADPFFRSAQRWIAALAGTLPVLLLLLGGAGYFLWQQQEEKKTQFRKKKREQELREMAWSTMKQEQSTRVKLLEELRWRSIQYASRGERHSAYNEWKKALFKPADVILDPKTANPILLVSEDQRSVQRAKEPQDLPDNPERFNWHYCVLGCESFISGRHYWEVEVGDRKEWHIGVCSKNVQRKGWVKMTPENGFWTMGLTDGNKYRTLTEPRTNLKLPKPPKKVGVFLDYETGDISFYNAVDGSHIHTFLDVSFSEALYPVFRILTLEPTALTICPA

[5] = biological target: T5, recombinant human PD-1 (human, UniProt Q15116 25-167, limits assumed); assay: SPR
T5 construct: Soluble antigen in SPR; also called rhPD-1
T5 sequence (Q15116 25-167 limits assumed): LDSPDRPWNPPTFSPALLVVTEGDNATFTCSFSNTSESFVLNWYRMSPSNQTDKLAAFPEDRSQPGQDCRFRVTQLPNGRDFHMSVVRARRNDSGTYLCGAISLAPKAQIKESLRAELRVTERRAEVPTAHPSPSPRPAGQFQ

[6] = biological target: T6, PD-1 at the surface of Jurkat-PD-1 cells (human, UniProt Q15116 25-288); assay: flow cytometry, Jurkat-PD-1 cells
T6 construct: whole, on cells
T6 sequence (Q15116 25-288): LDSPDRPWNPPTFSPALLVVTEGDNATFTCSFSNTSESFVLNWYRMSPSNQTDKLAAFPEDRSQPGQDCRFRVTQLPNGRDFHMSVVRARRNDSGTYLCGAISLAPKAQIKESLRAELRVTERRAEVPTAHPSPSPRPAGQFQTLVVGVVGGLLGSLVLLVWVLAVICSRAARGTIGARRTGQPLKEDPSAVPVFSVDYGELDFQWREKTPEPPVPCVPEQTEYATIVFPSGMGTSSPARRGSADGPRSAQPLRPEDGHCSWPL

[7] = biological target: T6, PD-1 at the surface of Jurkat-PD-1 cells; assay: cell-based or functional assay

T2 sequence (Q9NZQ7 19-239 limits assumed): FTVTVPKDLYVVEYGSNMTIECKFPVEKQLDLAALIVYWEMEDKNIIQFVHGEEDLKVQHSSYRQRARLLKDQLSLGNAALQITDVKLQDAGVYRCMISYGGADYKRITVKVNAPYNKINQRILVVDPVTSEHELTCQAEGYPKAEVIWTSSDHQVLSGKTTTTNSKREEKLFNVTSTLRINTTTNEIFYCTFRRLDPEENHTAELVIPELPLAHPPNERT
T1 sequence (O00481 30-254 limits assumed): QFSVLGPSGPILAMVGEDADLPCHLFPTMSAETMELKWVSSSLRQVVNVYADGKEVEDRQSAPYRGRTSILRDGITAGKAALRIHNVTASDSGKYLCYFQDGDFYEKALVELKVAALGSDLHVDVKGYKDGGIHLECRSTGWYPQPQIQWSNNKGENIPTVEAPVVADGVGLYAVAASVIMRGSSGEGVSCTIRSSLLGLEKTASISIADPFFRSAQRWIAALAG

B1: bsAb020 (bispecific antibody)
heavy: DIQMTQSPSSLSASVGDRVTITCHASQNINVWLSWYQQKPGKAPKLLIYKASNLHTGVPSRFTGSGSGTDFTFTISSLQPEDIATYYCQQGQTYPYTFGQGTKLEIKGGGGSGGGGSGGGGSGGGGSQVQLVQSGAEVKKPGASVKLSCKASGYIFTRYYMYWVKQRPGQGLEWIGEINPNNGGTKFNEKFKNRATLTVDKSISTAYMELSRLRSDDTAVYYCSREDDYDGTPFAMDYWGQGTLVTVSSGGGGSGGGGSGGGGSGGGGSEVQLVESGGGLVQPGGSLRLSCAASGFTFSRYWMSWVRQAPGKGLEWVANIKQDGSEKYYVDSVKGRFTISRDNAKNSLYLQMNSLRAEDTAVYYCAREGGWFGELAFDYWGQGTLVTVSSASTKGPSVFPLAPSSKSTSGGTAALGCLVKDYFPEPVTVSWNSGALTSGVHTFPAVLQSSGLYSLSSVVTVPSSSLGTQTYICNVNHKPSNTKVDKRVEPKSCDKTHTCPPCPAPEFEGGPSVFLFPPKPKDTLMISRTPEVTCVVVDVSHEDPEVKFNWYVDGVEVHNAKTKPREEQYNSTYRVVSVLTVLHQDWLNGKEYKCKVSNKALPASIEKTISKAKGQPREPQVYTLPPSREEMTKNQVSLTCLVKGFYPSDIAVEWESNGQPENNYKTTPPVLDSDGSFFLYSKLTVDKSRWQQGNVFSCSVMHEALHNHYTQKSLSLSPG
light: EIVLTQSPGTLSLSPGERATLSCRASQRVSSSYLAWYQQKPGQAPRLLIYDASSRATGIPDRFSGSGSGTDFTLTISRLEPEDFAVYYCQQYGSLPWTFGQGTKVEIKRTVAAPSVFIFPPSDEQLKSGTASVVCLLNNFYPREAKVQWKVDNALQSGNSQESVTEQDSKDSTYSLSSTLTLSKADYEKHKVYACEVTHQGLSSPVTKSFNRGEC
notes: IgG anti-PD-L1, scFv anti-BTN3A
Kd [1]: 0.114 nM
Kd [2]: 0.073 nM
MFI at 10 nM [3]: 746000 MFI
MFI at 100 nM [3]: 784000 MFI
MFI at 10 nM [4]: 997000 MFI
MFI at 100 nM [4]: 1.5e+06 MFI

B2: bsAb024 (bispecific antibody)
heavy: QVQLVQSGAEVKKPGASVKLSCKASGYIFTRYYMYWVKQRPGQGLEWIGEINPNNGGTKFNEKFKNRATLTVDKSISTAYMELSRLRSDDTAVYYCSREDDYDGTPFAMDYWGQGTLVTVSSGGGGSGGGGSGGGGSGGGGSDIQMTQSPSSLSASVGDRVTITCHASQNINVWLSWYQQKPGKAPKLLIYKASNLHTGVPSRFTGSGSGTDFTFTISSLQPEDIATYYCQQGQTYPYTFGQGTKLEIKGGGGSGGGGSGGGGSGGGGSEVQLVESGGGLVQPGGSLRLSCAASGFTFSRYWMSWVRQAPGKGLEWVANIKQDGSEKYYVDSVKGRFTISRDNAKNSLYLQMNSLRAEDTAVYYCAREGGWFGELAFDYWGQGTLVTVSSASTKGPSVFPLAPSSKSTSGGTAALGCLVKDYFPEPVTVSWNSGALTSGVHTFPAVLQSSGLYSLSSVVTVPSSSLGTQTYICNVNHKPSNTKVDKRVEPKSCDKTHTCPPCPAPEFEGGPSVFLFPPKPKDTLMISRTPEVTCVVVDVSHEDPEVKFNWYVDGVEVHNAKTKPREEQYNSTYRVVSVLTVLHQDWLNGKEYKCKVSNKALPASIEKTISKAKGQPREPQVYTLPPSREEMTKNQVSLTCLVKGFYPSDIAVEWESNGQPENNYKTTPPVLDSDGSFFLYSKLTVDKSRWQQGNVFSCSVMHEALHNHYTQKSLSLSPG
light: EIVLTQSPGTLSLSPGERATLSCRASQRVSSSYLAWYQQKPGQAPRLLIYDASSRATGIPDRFSGSGSGTDFTLTISRLEPEDFAVYYCQQYGSLPWTFGQGTKVEIKRTVAAPSVFIFPPSDEQLKSGTASVVCLLNNFYPREAKVQWKVDNALQSGNSQESVTEQDSKDSTYSLSSTLTLSKADYEKHKVYACEVTHQGLSSPVTKSFNRGEC
notes: as for B1
Kd [1]: 0.073 nM
Kd [2]: 0.065 nM
MFI at 10 nM [3]: 762000 MFI
MFI at 100 nM [3]: 794000 MFI
MFI at 100 nM [4]: 1.66e+06 MFI

B3: bsAb049 (bispecific antibody)
heavy 1: QVQLVQSGVEVKKPGASVKVSCKASGYTFTNYYMYWVRQAPGQGLEWMGGINPSNGGTNFNEKFKNRVTLTTDSSTTTAYMELKSLQFDDTAVYYCARRDYRFDMGFDYWGQGTTVTVSSGGGGSGGGGSGGGGSGGGGSEIVLTQSPATLSLSPGERATLSCRASKGVSTSGYSYLHWYQQKPGQAPRLLIYLASYLESGVPARFSGSGSGTDFTLTISSLEPEDFAVYYCQHSRDLPLTFGGGTKVEIKGGGGSGGGGSGGGGSGGGGSQVQLVQSGAEVKKPGASVKLSCKASGYIFTRYYMYWVKQRPGQGLEWIGEINPNNGGTKFNEKFKNRATLTVDKSISTAYMELSRLRSDDTAVYYCSREDDYDGTPFAMDYWGQGTLVTVSS
heavy 2: QVQLVQSGAEVKKPGASVKLSCKASGYIFTRYYMYWVKQRPGQGLEWIGEINPNNGGTKFNEKFKNRATLTVDKSISTAYMELSRLRSDDTAVYYCSREDDYDGTPFAMDYWGQGTLVTVSS
light: not shown
notes: IgG anti-BTN3A, one scFv anti-PD-1; not shown: IgG1 CH1-hinge-CH2-CH3
Kd [5]: 0.856 nM
Kd [1]: 0.101 nM
MFI at 10 nM [6]: 175000 MFI
MFI at 100 nM [6]: 376000 MFI
Jurkat-PD-1 activation at 10 nM [7]: 1.3 fold-change to medium
Jurkat-PD-1 activation at 100 nM [7]: 2.3 fold-change to medium
MFI at 10 nM [4]: 460000 MFI
MFI at 100 nM [4]: 740000 MFI

B4: bsAb056 (bispecific antibody)
heavy 1: GGGGSGGGGSGGGGSGGGGSQVQLVQSGVEVKKPGASVKVSCKASGYTFTNYYMYWVRQAPGQGLEWMGGINPSNGGTNFNEKFKNRVTLTTDSSTTTAYMELKSLQFDDTAVYYCARRDYRFDMGFDYWGQGTTVTVSSGGGGSGGGGSGGGGSGGGGSEIVLTQSPATLSLSPGERATLSCRASKGVSTSGYSYLHWYQQKPGQAPRLLIYLASYLESGVPARFSGSGSGTDFTLTISSLEPEDFAVYYCQHSRDLPLTFGGGTKVEIK
heavy 2: QVQLVQSGAEVKKPGASVKLSCKASGYIFTRYYMYWVKQRPGQGLEWIGEINPNNGGTKFNEKFKNRATLTVDKSISTAYMELSRLRSDDTAVYYCSREDDYDGTPFAMDYWGQGTLVTVSS
light: not shown
notes: one Fab arm anti-BTN3A, one scFv anti-PD-1; not shown: CH2-CH3 (Fc); IgG1 CH1-hinge-CH2-CH3
Kd [5]: 2 nM
Kd [1]: 0.065 nM
MFI at 100 nM [6]: 334000 MFI
Jurkat-PD-1 activation at 10 nM [7]: 1.5 fold-change to medium
Jurkat-PD-1 activation at 100 nM [7]: 3.4 fold-change to medium
MFI at 10 nM [4]: 519000 MFI
MFI at 100 nM [4]: 1e+06 MFI

B5: bsAb051 (bispecific antibody)
heavy (part 1 of 2): QVQLVQSGAEVKKPGASVKLSCKASGYIFTRYYMYWVKQRPGQGLEWIGEINPNNGGTKFNEKFKNRATLTVDKSISTAYMELSRLRSDDTAVYYCSREDDYDGTPFAMDYWGQGTLVTVSS
heavy (part 2 of 2): GGGGSGGGGSGGGGSGGGGSEVQLVESGGGLVQPGGSLRLSCAASGFTFSRYWMSWVRQAPGKGLEWVANIKQDGSEKYYVDSVKGRFTISRDNAKNSLYLQMNSLRAEDTAVYYCAREGGWFGELAFDYWGQGTLVTVSSGGGGSGGGGSGGGGSGGGGSEIVLTQSPGTLSLSPGERATLSCRASQRVSSSYLAWYQQKPGQAPRLLIYDASSRATGIPDRFSGSGSGTDFTLTISRLEPEDFAVYYCQQYGSLPWTFGQGTKVEIK
heavy: GGGGSGGGGSGGGGSGGGGSEVQLVESGGGLVQPGGSLRLSCAASGFTFSRYWMSWVRQAPGKGLEWVANIKQDGSEKYYVDSVKGRFTISRDNAKNSLYLQMNSLRAEDTAVYYCAREGGWFGELAFDYWGQGTLVTVSSGGGGSGGGGSGGGGSGGGGSEIVLTQSPGTLSLSPGERATLSCRASQRVSSSYLAWYQQKPGQAPRLLIYDASSRATGIPDRFSGSGSGTDFTLTISRLEPEDFAVYYCQQYGSLPWTFGQGTKVEIK
light: not shown
notes: one Fab arm anti-BTN3A, two scFv anti-PD-L1; not shown: IgG1 CH1-hinge-CH2-CH3; CH2-CH3 (Fc)
Kd [1]: 0.095 nM
Kd [2]: 0.033 nM
MFI at 10 nM [3]: 578000 MFI
MFI at 100 nM [3]: 597000 MFI
MFI at 10 nM [4]: 340000 MFI
MFI at 100 nM [4]: 792000 MFI

B6: bsAb052 (bispecific antibody)
heavy (part 1 of 2): QVQLVQSGAEVKKPGASVKLSCKASGYIFTRYYMYWVKQRPGQGLEWIGEINPNNGGTKFNEKFKNRATLTVDKSISTAYMELSRLRSDDTAVYYCSREDDYDGTPFAMDYWGQGTLVTVSS
heavy (part 2 of 2): GGGGSGGGGSGGGGSGGGGSQVQLVQSGVEVKKPGASVKVSCKASGYTFTNYYMYWVRQAPGQGLEWMGGINPSNGGTNFNEKFKNRVTLTTDSSTTTAYMELKSLQFDDTAVYYCARRDYRFDMGFDYWGQGTTVTVSSGGGGSGGGGSGGGGSGGGGSEIVLTQSPATLSLSPGERATLSCRASKGVSTSGYSYLHWYQQKPGQAPRLLIYLASYLESGVPARFSGSGSGTDFTLTISSLEPEDFAVYYCQHSRDLPLTFGGGTKVEIK
heavy: GGGGSGGGGSGGGGSGGGGSQVQLVQSGVEVKKPGASVKVSCKASGYTFTNYYMYWVRQAPGQGLEWMGGINPSNGGTNFNEKFKNRVTLTTDSSTTTAYMELKSLQFDDTAVYYCARRDYRFDMGFDYWGQGTTVTVSSGGGGSGGGGSGGGGSGGGGSEIVLTQSPATLSLSPGERATLSCRASKGVSTSGYSYLHWYQQKPGQAPRLLIYLASYLESGVPARFSGSGSGTDFTLTISSLEPEDFAVYYCQHSRDLPLTFGGGTKVEIK
light: not shown
notes: one Fab arm anti-BTN3A, two scFv anti-PD-1; not shown: IgG1 CH1-hinge-CH2-CH3; CH2-CH3 (Fc)
Kd [5]: 1.8 nM
Kd [1]: 0.069 nM
MFI at 10 nM [6]: 185000 MFI
MFI at 100 nM [6]: 366000 MFI
Jurkat-PD-1 activation at 10 nM [7]: 5.3 fold-change to medium
Jurkat-PD-1 activation at 100 nM [7]: 7.6 fold-change to medium
MFI at 10 nM [4]: 321000 MFI
MFI at 100 nM [4]: 785000 MFI
